Source: patent publication EP0574512B1

Legend:
[1] = target: MHC class II antigen on the Raji B cell line; assay: cell-based or functional assay
[2] = target: HIV-1 envelope gp120/gp41 complex (HIV-1); assay: cell-based or functional assay

Substance: CD4:ζ chimeric receptor
- cytolysis (51Cr release) [1]: 5 % cytolysis
- mean effector to target ratio for 50% release (51Cr release cytolysis by CTL) (effector to target ratio) [2]: 1.9
